The supplement of paper PMC5998384

How the values were obtained:
[1] = test system: HeLa Kyoto; assay: solubility in G1/S (NP-40 vs SDS abundance) (log2 ratio); higher = more soluble; conditions: cell cycle stage: G1/S
[2] = test system: HeLa Kyoto; assay: solubility change mitosis vs G1/S (difference of NP-40 vs SDS log2 ratios) (log2 ratio difference); higher = more soluble in mitosis
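Wherever solubility change mitosis vs G1/S (difference of NP-40 vs SDS log2 ratios) is given: synchronized HeLa Kyoto cells (double thymidine block for G1/S, nocodazole release for mitosis), protein amounts in NP-40 versus SDS lysates quantified by mass spectrometry, three biological replicates.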
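Wherever solubility in G1/S (NP-40 vs SDS abundance) is given: HeLa Kyoto cells arrested at G1/S by double thymidine block, proteins quantified by TMT10plex mass spectrometry in mild NP-40 versus SDS extracts, three biological replicates.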

Substance | solubility in G1/S (log2) [1] | solubility change mitosis (log2) [2]
MSENNKNSLESSLRQLKCHFTWNLMEGENSLDDFEDKVFYRTEFQNREFKATMCNLLAYLKHLKGQNEAALECLRKAEELIQQEHADQAEIRSLVTWGNYAWVYYHMGRLSDVQIYVDKVKHVCEKFSSPYRIESPELDCEEGWTRLKCGGNQNERAKVCFEKALEKKPKNPEFTSGLAIASYRLDNWPPSQNAIDPLRQAIRLNPDNQYLKVLLALKLHKMREEGEEEGEGEKLVEEALEKAPGVTDVLRSAAKFYRRKDEPDKAIELLKKALEYIPNNAYLHCQIGCCYRAKVFQVMNLRENGMYGKRKLLELIGHAVAHLKKADEANDNLFRVCSILASLHALADQYEDAEYYFQKEFSKELTPVAKQLLHLRYGNFQLYQMKCEDKAIHHFIEGVKINQKSREKEKMKDKLQKIAKMRLSKNGADSEALHVLAFLQELNEKMQQADEDSERGLESGSLIPSASSWNGE [IFIT2] | 0.432 | -0.2
MLSPQRALLCNLNHIHLQHVSLGLHLSRRPELQEGPLSTPPPPGDTGGKESRGPCSGTLVDANSNSPAVPCRCCQEHGPGLENRQDPSQEEEGAASPSDPGCSSSLSSCSDLSPDESPVSVYLRDLPGDEDAHPQPSIIPLEQGSPLASAGPGTCSPDSFCCSPDSCSGASSSPDPGLDSNCNALTTCQDVPSPGLEEEDERAEQDLPTSELLEADDGKIDAGKTEPSWKINPIWKIDTEKTKAEWKTTENNNTGWKNNGNVNSSWKSEPEKFDSGWKTNTRITDSGSKTDAGKIDGGWRSDVSEEPVPHRTITSFHELAQKRKRGPGLPLVPQAKKDRSDWLIVFSPDTELPPSGSPGGSSAPPREVTTFKELRSRSRAPAPPVPPRDPPVGWALVPPRPPPPPVPPRRKKNRPGLQPIAEGQSEEGRAVSPAAGEEAPAAKEPGAQAGLEVRSSWSFAGVPGAQRLWMAEAQSGTGQLQEQKKGLLIAVSVSVDKIISHFGAARNLVQKAQLGDSRLSPDVGHLVLTTLCPALHALVADGLKPFRKDLITGQRRSSPWSVVEASVKPGSSTRSLGTLYSQVSRLAPLSSSRSRFHAFILGLLNTKQLELWFSSLQEDAGLLSLLYLPTGFFSLARGGCPSLSTELLLLLQPLSVLTFHLDLLFEHHHHLPLGPPQAPAPPGPPPALQQTMQAMLHFGGRLAQSLRGTSKEAASDPSDSPNLPTPGSWWEQLTQASRVYASGGTEGFPLSRWAPGRHGTAAEEGAQERPLPTDEMAPGRGLWLGRLFGVPGGPAENENGALKSRRPSSWLPPTVSVLALVKRGAPPEMPSPQELEASAPRMVQTHRAVRALCDHTAARPDQLSFRRGEVLRVITTVDEDWLRCGRDGMEGLVPVGYTSLVL [RUSC1] | 0.182 | -0.133
MEAKTLGTVTPRKPVLSVSARKIKDNAADWHNLILKWETLNDAGFTTANNIANLKISLLNKDKIELDSSSPASKENEEKVCLEYNEELEKLCEELQATLDGLTKIQVKMEKLSSTTKGICELENYHYGEESKRPPLFHTWPTTHFYEVSHKLLEMYRKELLLKRTVAKELAHTGDPDLTLSYLSMWLHQPYVESDSRLHLESMLLETGHRAL [CINP] | 0.148 | 0.525
CLIC3 | 0.369 | -0.00439
MAEASFGSSSPVGSLSSEDHDFDPTAEMLVHDYDDERTLEEEEMMDEGKNFSSEIEDLEKEGTMPLEDLLAFYGYEPTIPAVANSSANSSPSELADELPDMTLDKEEIAKDLLSGDDEETQSSADDLTPSVTSHETSDFFPRPLRSNTACDGDKESEVEDVETDSGNSPEDLRKEIMIGLQYQAEIPPYLGEYDGNEKVYENEDQLLWCPDVVLESKVKEYLVETSLRTGSEKIMDRISAGTHTRDNEQALYELLKCNHNIKEAIERYCCNGKASQEGMTAWTEEECRSFEHALMLFGKDFHLIQKNKVRTRTVAECVAFYYMWKKSERYDYFAQQTRFGKKRYNHHPGVTDYMDRLVDETEALGGTVNASALTSNRPEPIPDQQLNILNSFTASDLTALTNSVATVCDPTDVNCLDDSFPPLGNTPRGQVNHVPVVTEELLTLPSNGESDCFNLFETGFYHSELNPMNMCSEESERPAKRLKMGIAVPESFMNEVSVNNLGVDFENHTHHITSAKMAVSVADFGSLSANETNGFISAHALHQHAALHSE [MIER3] | 0.163 | -0.33
MAKRRAAEPVTFHVPWKRLLLCDFAEQPPPPPLWIRPPGVAHAGQLLGVPEQHRKRKIDAGTMAEPSASPSKRRDSGDNSAPSGQEREDHGLETGDPPLPPPPVLPGPGEELPGARLPGGGGDDGAGRAGPPRGDWGVASRQHNEEFWQYNTFQYWRNPLPPIDLADIEDLSEDTLTEATLQGRNEGAEVDMES [C9ORF40] | 0.182 | -0.227
MEKYHVLEMIGEGSFGRVYKGRRKYSAQVVALKFIPKLGRSEKELRNLQREIEIMRGLRHPNIVHMLDSFETDKEVVVVTDYAEGELFQILEDDGKLPEDQVQAIAAQLVSALYYLHSHRILHRDMKPQNILLAKGGGIKLCDFGFARAMSTNTMVLTSIKGTPLYMSPELVEERPYDHTADLWSVGCILYELAVGTPPFYATSIFQLVSLILKDPVRWPSTISPCFKNFLQGLLTKDPRQRLSWPDLLYHPFIAGHVTIITEPAGPDLGTPFTSRLPPELQVLKDEQAHRLAPKGNQSRILTQAYKRMAEEAMQKKHQNTGPALEQEDKTSKVAPGTAPLPRLGATPQESSLLAGILASELKSSWAKSGTGEVPSAPRENRTTPDCERAFPEERPEVLGQRSTDVVDLENEEPDSDNEWQHLLETTEPVPIQLKAPLTLLCNPDFCQRIQSQLHEAGGQILKGILEGASHILPAFRVLSSLLSSCSDSVALYSFCREAGLPGLLLSLLRHSQESNSLQQQSWYGTFLQDLMAVIQAYFACTFNLERSQTSDSLQVFQEAANLFLDLLGKLLAQPDDSEQTLRRDSLMCFTVLCEAMDGNSRAISKAFYSSLLTTQQVVLDGLLHGLTVPQLPVHTPQGAPQVSQPLREQSEDIPGAISSALAAICTAPVGLPDCWDAKEQVCWHLANQLTEDSSQLRPSLISGLQHPILCLHLLKVLYSCCLVSEGLCRLLGQEPLALESLFMLIQGKVKVVDWEESTEVTLYFLSLLVFRLQNLPCGMEKLGSDVATLFTHSHVVSLVSAAACLLGQLGQQGVTFDLQPMEWMAAATHALSAPAEVRLTPPGSCGFYDGLLILLLQLLTEQGKASLIRDMSSSEMWTVLWHRFSMVLRLPEEASAQEGELSLSSPPSPEPDWTLISPQGMAALLSLAMATFTQEPQLCLSCLSQHGSILMSILKHLLCPSFLNQLRQAPHGSEFLPVVVLSVCQLLCFPFALDMDADLLIGVLADLRDSEVAAHLLQVCCYHLPLMQVELPISLLTRLALMDPTSLNQFVNTVSASPRTIVSFLSVALLSDQPLLTSDLLSLLAHTARVLSPSHLSFIQELLAGSDESYRPLRSLLGHPENSVRAHTYRLLGHLLQHSMALRGALQSQSGLLSLLLLGLGDKDPVVRCSASFAVGNAAYQAGPLGPALAAAVPSMTQLLGDPQAGIRRNVASALGNLGPEGLGEELLQCEVPQRLLEMACGDPQPNVKEAALIALRSLQQEPGIHQVLVSLGASEKLSLLSLGNQSLPHSSPRPASAKHCRKLIHLLRPAHSM [STK36] | -0.178 | 0.092
MDDDLMLALRLQEEWNLQEAERDHAQESLSLVDASWELVDPTPDLQALFVQFNDQFFWGQLEAVEVKWSVRMTLCAGICSYEGKGGMCSIRLSEPLLKLRPRKDLVETLLHEMIHAYLFVTNNDKDREGHGPEFCKHMHRINSLTGANITVYHTFHDEVDEYRRHWWRCNGPCQHRPPYYGYVKRATNREPSAHDYWWAEHQKTCGGTYIKIKEPENYSKKGKGKAKLGKEPVLAAENKDKPNRGEAQLVIPFSGKGYVLGETSNLPSPGKLITSHAINKTQDLLNQNHSANAVRPNSKIKVKFEQNGSSKNSHLVSPAVSNSHQNVLSNYFPRVSFANQKAFRGVNGSPRISVTVGNIPKNSVSSSSQRRVSSSKISLRNSSKVTESASVMPSQDVSGSEDTFPNKRPRLEDKTVFDNFFIKKEQIKSSGNDPKYSTTTAQNSSSSSSQSKMVNCPVCQNEVLESQINEHLDWCLEGDSIKVKSEESL [SPRTN] | -0.206 | 0.0242
WWP1 | -0.159 | 0.0121
MDTKHFLPLDFSTQVNSSLTSPTGRGSMAAPSLHPSLGPGIGSPGQLHSPISTLSSPINGMGPPFSVISSPMGPHSMSVPTTPTLGFSTGSPQLSSPMNPVSSSEDIKPPLGLNGVLKVPAHPSGNMASFTKHICAICGDRSSGKHYGVYSCEGCKGFFKRTVRKDLTYTCRDNKDCLIDKRQRNRCQYCRYQKCLAMGMKREAVQEERQRGKDRNENEVESTSSANEDMPVERILEAELAVEPKTETYVEANMGLNPSSPNDPVTNICQAADKQLFTLVEWAKRIPHFSELPLDDQVILLRAGWNELLIASFSHRSIAVKDGILLATGLHVHRNSAHSAGVGAIFDRVLTELVSKMRDMQMDKTELGCLRAIVLFNPDSKGLSNPAEVEALREKVYASLEAYCKHKYPEQPGRFAKLLLRLPALRSIGLKCLEHLFFFKLIGDTPIDTFLMEMLEAPHQMT [RXRA] | 0.173 | -0.151
MEAAETEAEAAALEVLAEVAGILEPVGLQEEAELPAKILVEFVVDSQKKDKLLCSQLQVADFLQNILAQEDTAKGLDPLASEDTSRQKAIAAKEQWKELKATYREHVEAIKIGLTKALTQMEEAQRKRTQLREAFEQLQAKKQMAMEKRRAVQNQWQLQQEKHLQHLAEVSAEVRERKTGTQQELDRVFQKLGNLKQQAEQERDKLQRYQTFLQLLYTLQGKLLFPEAEAEAENLPDDKPQQPTRPQEQSTGDTMGRDPGVSFKAVGLQPAGDVNLP [ZWINT] | -0.0767 | 0.896
MDDSDTPTYYLQIEPQDGCHPGDSVERSVTCLPSASDENENQLDGDGHEHLTSSDSAMGKPQVSEQDSLNNNESCTLSCEVAAGENLQNTLCEASRDEQAFLGKDKKIPGKRSPRSKKGTAKKIPPGLFSGDIAPLMQEKVLSAVTYAVDDEEAAEVNANEQPEAPKLVLQSLFSLIRGEVEQLDSRALPLCLHQIAESYFQEEDYEKAMKFIQLERLYHEQLLANLSAIQEQWETKWKTVQPHTVTALRNSEKGFNGEDFERLTKICATHQDPLLSKHKIAAVEKSQERKCSTQLLVSEDPKEGGATTKESESKTCLGTESSKESQHTVEPLGSSPCCHQMDVQTDSPSLSVTAGKDHMEELLCSAEATLALHTQSSETAGSPSGPDSSEDACEDDSRLQLAQTEACQDVARIEGIAEDPKVFLSSKSKTEPLISPGCDRIPPALISEGKYSQAQRKELRLPLRDASEALPTDQLENNELNELQQPDLTDSDGKSPQAQADSDGSENVLCGNNQISDLGILLPEVCMAPEEKGDKDDQLNKETEDYLNSLLEGCLKDTEDSLSYEDNQDDDSDLLQDLSPEEASYSLQENLPSDESCLSLDDLAKRIEIAEVVPTEGLVSILKKRNDTVGDHPAQMQHKPSKRRVRFQEIDDSLDQDEVGGGSCILLVLLCIATVFLSVGGTALYCTFGDMESPVCTDFADNMDFYYTKLLQGVAELKHWIYLS [CNST] | 0.292 | -0.0548
